B1: 5C1-mHvKv-IgG1 (antibody, V domains shown)
VH: EVQLQQSGTVLARPGASVKMSCKASGYSFTSYWMHWVKQRPGQGLEWIGTIYPGNSDTSNNQKFKGKAKLTAVTSASTAYMELSSLTNEDSAVYYCTTFYYRYEDYYAMDYWGQGTSVTVSS
VL: DIVMTQSHKFMSTSVGDRVSITCKASQDVNTAVAWYQQKPGQSPKLLIYSASYRYTGVPDRFTGSGSGTDFTFTISSVQAEDLAVYYCQQHYSTPFTFGSGTKLEIK
notes: Chimeric: mouse 5C1 variable domains with human IgG1 constant domains; also called 5C1 chimeric antibody
B2: 9H3-mHvKv-IgG1 (antibody, V domains shown)
VH: QVQLKQSGPGLVQPSQSLSITCTVSGFSLTSYGVLWVRQPPGKGLEWLGVIWSGGSTDYNAAFISRLSISKDNSKSQVFFKMNSLQADDTAIYYCAREEFGYWGQGTLVTVSA
VL: DIQMTQTTSSLSASLGDRVTISCRASQDINNYLNWYQQKPDGTVKLLIYYTSRLHSGVPSRFSGSGSGTDYSLTISNLEQEDIATYFCQQTNTLPWTFGGGTKLEIK
notes: Chimeric: mouse 9H3 variable domains with human IgG1 constant domains (CL, CH1, CH2, CH3); also called 9H3 chimeric antibody; chimeric anti-hOX40 antibody
B3: 5D10-mHvKv-IgG1 (antibody, V domains shown)
VH: QVQLKESGPGLVAPSQSLSITCTVSGFSLTSYGVHWIRQPPGKGLEWLGVIWAGGNTNYNSALMSRLSISKDNSKSQVFLKMNSLQTDDTAMYNCASYDGYYGWFAYWGQGTLVTVSV
VL: DIQMTQTTSSLSASLGDRVTISCRASQDISYYLNWYQQKPDGTVKLLIYYTSRLHSGVPSRFSGSGSGTDYSLTISNLEQEDIATYFCQQGHTLPWTFGGGTKLEIK
notes: Chimeric: mouse 5D10 variable domains with human IgG1 constant domains; also called 5D10 chimeric antibody
B4: 9H3-H2K2-IgG1 (antibody, V domains shown)
VH: QVQLVESGGGVVQPGRSLRISCAVSGFSLTSYGVLWVRQAPGKGLEWVAVIWSGGSTDYNAAFISRLTISRDNSKSTVYFQMNSLRAEDTAVYYCAREEFGYWGQGTLVTVSS
VL: DIQMTQSPSSLSASVGDRVTITCRASQDINNYLNWYQQKPGGAVKLLIYYTSRLHSGVPSRFSGSGSGTDFTLTISSLQPEDIATYYCQQTNTLPWTFGGGTKLEIKR
notes: Humanized, with human IgG1 constant domains; also called 9H3 humanized antibody H2K2
B5: 9H3-H2K3-IgG1 (antibody, V domains shown)
VH: QVQLVESGGGVVQPGRSLRISCAVSGFSLTSYGVLWVRQAPGKGLEWVAVIWSGGSTDYNAAFISRLTISRDNSKSTVYFQMNSLRAEDTAVYYCAREEFGYWGQGTLVTVSS
VL: DIQMTQSPSSLSASVGDRVTITCRASQDINNYLNWYQQKPGGAVKLLIYYTSRLHSGVPSRFSGSGSGTDYTLTISSLQPEDIATYFCQQTNTLPWTFGGGTKLEIKR
notes: Humanized, with human IgG1 constant domains; also called 9H3 humanized antibody H2K3
B6: 9H3-H3K2-IgG1 (antibody, V domains shown)
VH: QVQLVESGGGVVQPGRSLRISCAVSGFSLTSYGVLWVRQAPGKGLEWLGVIWSGGSTDYNAAFISRLTISRDNSKSTVYFQMNSLRAEDTAVYYCAREEFGYWGQGTLVTVSS
VL: DIQMTQSPSSLSASVGDRVTITCRASQDINNYLNWYQQKPGGAVKLLIYYTSRLHSGVPSRFSGSGSGTDFTLTISSLQPEDIATYYCQQTNTLPWTFGGGTKLEIKR
notes: Humanized, with human IgG1 constant domains; also called 9H3 humanized antibody H3K2
B7: 9H3-H3K3-IgG1 (antibody, V domains shown)
VH: QVQLVESGGGVVQPGRSLRISCAVSGFSLTSYGVLWVRQAPGKGLEWLGVIWSGGSTDYNAAFISRLTISRDNSKSTVYFQMNSLRAEDTAVYYCAREEFGYWGQGTLVTVSS
VL: DIQMTQSPSSLSASVGDRVTITCRASQDINNYLNWYQQKPGGAVKLLIYYTSRLHSGVPSRFSGSGSGTDYTLTISSLQPEDIATYFCQQTNTLPWTFGGGTKLEIKR
notes: Humanized, with human IgG1 constant domains; also called 9H3 humanized antibody H3K3
B8: 9H3-H3K1-IgG1 (antibody, V domains shown)
VH: QVQLVESGGGVVQPGRSLRISCAVSGFSLTSYGVLWVRQAPGKGLEWLGVIWSGGSTDYNAAFISRLTISRDNSKSTVYFQMNSLRAEDTAVYYCAREEFGYWGQGTLVTVSS
VL: DIQMTQSPSSLSASVGDRVTITCRASQDINNYLNWYQQKPGGAVKLLIYYTSRLHTGVPSRFSGSGSGTDFTLTISSLQPEDIATYYCQQTNTLPWTFGGGTKLEVKR
notes: Humanized, with human IgG1 constant domains; also called 9H3 humanized antibody H3K1
B9: 9H3-H2K1-IgG1 (antibody, V domains shown)
VH: QVQLVESGGGVVQPGRSLRISCAVSGFSLTSYGVLWVRQAPGKGLEWVAVIWSGGSTDYNAAFISRLTISRDNSKSTVYFQMNSLRAEDTAVYYCAREEFGYWGQGTLVTVSS
VL: DIQMTQSPSSLSASVGDRVTITCRASQDINNYLNWYQQKPGGAVKLLIYYTSRLHTGVPSRFSGSGSGTDFTLTISSLQPEDIATYYCQQTNTLPWTFGGGTKLEVKR
notes: Humanized, with human IgG1 constant domains (CL, CH1, CH2, CH3); also called 9H3 humanized antibody H2K1
B10: 9A4-mHvKv-IgG1 (antibody, V domains shown)
VH: EVQLQQFGAELVKPGASVKISCKASGYTFTDYNMDWVKQSHGKSLEWIGDINPNYDSTSYNQKFKGKATLTVDKSSSTAYMELRSLTSEDTAVYYCARGGYGNYVDYFDYWGQGTTLTVSS
VL: NIVMTQSPKSMSMSVGERVTLSCKASENVVTYVSWYQQKPEQSPKLLIYGASNRYTGVPDRFTGSGSATDFTLTISSVQAEDLADYHCGQSYSYPYTFGGGTKLEIK
notes: Chimeric: mouse 9A4 variable domains with human IgG1 constant domains; also called 9A4 chimeric antibody
B11: 9A4 (mouse antibody) (antibody, V domains shown)
VH: EVQLQQFGAELVKPGASVKISCKASGYTFTDYNMDWVKQSHGKSLEWIGDINPNYDSTSYNQKFKGKATLTVDKSSSTAYMELRSLTSEDTAVYYCARGGYGNYVDYFDYWGQGTTLTVSS
VL: NIVMTQSPKSMSMSVGERVTLSCKASENVVTYVSWYQQKPEQSPKLLIYGASNRYTGVPDRFTGSGSATDFTLTISSVQAEDLADYHCGQSYSYPYTFGGGTKLEIK
notes: also called 07-9A4
B12: mouse anti-hOX40 antibody 07-9H3 (antibody, V domains shown)
VH: QVQLKQSGPGLVQPSQSLSITCTVSGFSLTSYGVLWVRQPPGKGLEWLGVIWSGGSTDYNAAFISRLSISKDNSKSQVFFKMNSLQADDTAIYYCAREEFGYWGQGTLVTVSA
VL: DIQMTQTTSSLSASLGDRVTISCRASQDINNYLNWYQQKPDGTVKLLIYYTSRLHSGVPSRFSGSGSGTDYSLTISNLEQEDIATYFCQQTNTLPWTFGGGTKLEIK
notes: Mouse IgG purified from ascites fluid

For one assay, the target named is T1, Human OX40 protein (hOX40-His) (human, UniProt P43489 29-214).
T1 construct: Soluble analyte in the SPR assay; also called His-tagged human OX40; not shown: His tag
T1 sequence: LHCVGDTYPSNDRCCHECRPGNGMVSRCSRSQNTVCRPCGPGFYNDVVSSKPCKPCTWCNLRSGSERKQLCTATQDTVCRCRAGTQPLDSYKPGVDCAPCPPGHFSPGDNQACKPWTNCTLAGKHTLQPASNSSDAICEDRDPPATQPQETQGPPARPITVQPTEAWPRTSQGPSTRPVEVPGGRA
Description: SPR, Biacore T200, antibody captured on Protein A chip, hOX40-His as analyte, 1:1 Langmuir fit. Here is the method:
The antibodies were tested for hOX40 binding. The affinity of an antibody was determined by surface plasmon resonance (Biacore T200 biosensor, Biacore, INC, Piscataway N.J.) equipped with pre-immobilized Protein A sensor chips.
Anti-hOX40 antibody 9H3-mHvKv-IgG1 (1 μg/mL) were injected into Biacore T200 biosensor at 10 μL/min for 25 seconds to achieve to a desired protein density (about 112 response units (RU)). […] Dissociation was monitored for 300 seconds. The chip was regenerated after the last injection of each titration with Glycine (pH 2.0, 30 μL/min for 12 seconds).
The same method with necessary appropriate adjustments for parameters (e.g., concentrations of the antibodies) were performed for all other tested antibodies.
With B1, the dissociation constant Kd was 29.8 nM, the off-rate (koff) was found to be 0.00163 s⁻¹ and the kon came to 54900 M⁻¹ s⁻¹.

The molecule B2 displayed a dissociation constant (Kd) of 2.31 nM, a koff of 0.000594 s⁻¹ and an on-rate constant (kon) of 258000 M⁻¹ s⁻¹.

B3 registered a dissociation constant Kd of 46.5 nM, a koff of 0.0147 s⁻¹ and a kon of 317000 M⁻¹ s⁻¹.

Molecule B4 had a Kd of 3.84 nM, a koff of 0.00087 s⁻¹ and a kon of 227000 M⁻¹ s⁻¹.

In the case of B5, binding was characterised by a dissociation constant (Kd) of 1.55 nM, the koff amounted to 0.000393 s⁻¹ and the kon is 254000 M⁻¹ s⁻¹.

Take B6: the Kd was found to be 3.34 nM, the koff turned out to be 0.000642 s⁻¹ and the kon amounted to 192000 M⁻¹ s⁻¹.

As for B7, the affinity, expressed as Kd, was 1.92 nM; the koff stood at 0.000451 s⁻¹; the kon was 235000 M⁻¹ s⁻¹.

As to B8, the Kd came to 2.49 nM, the koff was determined as 0.000606 s⁻¹ and the kon was found to be 244000 M⁻¹ s⁻¹.

Molecule B9 registered a dissociation constant Kd of 3.35 nM, a koff of 0.000748 s⁻¹ and a kon of 223000 M⁻¹ s⁻¹.

Regarding B10, binding was put at a Kd of 55.3 nM, the koff is 0.00669 s⁻¹ and the association rate constant (kon) came to 121000 M⁻¹ s⁻¹.

As for B11, the Kd was found to be 21.6 nM, the koff is 0.00192 s⁻¹ and the kon was 89100 M⁻¹ s⁻¹.

The target in another assay is T2, mouse OX40 on transfected CHO cells (mouse, UniProt P47741 20-272).
T2 construct: also called mOX40
T2 sequence: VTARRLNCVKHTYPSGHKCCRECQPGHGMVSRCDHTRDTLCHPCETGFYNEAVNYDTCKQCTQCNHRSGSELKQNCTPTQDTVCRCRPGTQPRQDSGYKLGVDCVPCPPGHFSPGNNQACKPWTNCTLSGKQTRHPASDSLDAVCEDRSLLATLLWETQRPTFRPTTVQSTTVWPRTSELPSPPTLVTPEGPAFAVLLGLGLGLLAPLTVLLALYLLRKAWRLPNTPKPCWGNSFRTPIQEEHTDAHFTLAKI
Briefly: flow cytometry, CHO-mOX40 cells; anti-mIgG Fc-FITC against SSC-H. Here is the method:
25 ul CHO cells were added to each well. 25 ul purified anti-hOX40 antibodies (1 ug/ml) (9H3 or “07-9H3”) were added to each well and were incubated at 4° C. for 30 minutes.
After being washed with PBS (1200 rmp, 5 min) twice, 50 ul of anti-mouse IgG Fc antibody fluorescein isothiocyanate conjugate (anti-mIgG Fc-FITC) with 1:500 dilution was added into each well and was incubated at 4° C. for 30 minutes, followed by PBS wash (1200 rmp, 5 min). The signals for FITC were determined by flow cytometry.
For B12, the binding result is reported as “no binding”.

In another assay the target is chimeric (mouse and human) OX40 on transfected CHO cells (chimeric (mouse and human)). Briefly: flow cytometry, CHO-chiOX40 cells; antibody at 1 ug/ml; anti-mIgG Fc-FITC (x axis) against SSC-H; NC panel of the same cells 2.78%.
In the case of B12, the % of cells in the anti-mouse-IgGFc-FITC positive gate came to 33.9%.

These data come from US20210206866A1 (EUCURE BEIJING BIOPHARMA, published 2021).
